Measurements taken from US6610535B1, “Progenitor cells and methods and uses related thereto” (ES Cell International Pte Ltd., priority 2000, dated 2003).
Entries after “also recorded” stand apart in the source; their conditions may differ.

Columns and labels:
[1] = test system: pancreatic duct epithelial cells; test: PNA-FITC lectin histochemistry of pancreas; assay type: binding, rat
Method: Paraffin sections of adult human pancreas, adult rat pancreas, embryonic rat pancreas, or cryosections of adult mouse pancreas were used. Alternatively, Time 0 duct or cultured duct preparations from 2 week old rat pancreas were examined, with or without paraformaldehyde fixation. PNA-FITC was used usually at 1:250 dilution in PBS or DMEM/HEPES medium and incubated for 1 hr to overnight at 4° C., then washed and mounted under VectaShield mounting medium containing DAPI. Cells stained without prior fixation were post-fixed before addition of mounting medium.

T0 duct prep = test: PNA-FITC FACS of dispersed duct cells; assay type: binding, rat; details: by FACS analysis
Method: PNA-FITC was diluted 1:250 in sterile wash buffer (Ca++ Mg++-free PBS containing 1% FBS). Dispersed live cells (approx. 2×10^6 cells) were spun down and resuspended in 100 μl of lectin and incubated for 30-45 min at 4° C. Cells were then washed twice with sterile wash buffer, resuspended in 2 ml of Iscoveís modified DMEM containing 5% FBS, Pen/Strep, 1 mM glutamine, and held on ice until run on the FACSVantage. Standard FACS procedures were used.

B1: PNA: plant lectin that binds to galactosyl (β-1,3) N-acetyl galactosamine (protein, UniProt P02872 24-273, looked up)
Galactose-binding lectin: AETVSFNFNSFSEGNPAINFQGDVTVLSNGNIQLTNLNKVNSVGRVLYAMPVRIWSSATGNVASFLTSFSFEMKDIKDYDPADGIIFFIAPEDTQIPAGSIGGGTLGVSDTKGAGHFVGVEFDTYSNSEYNDPPTDHVGIDVNSVDSVKTVPWNSVSGAVVKVTVIYDSSTKTLSVAVTNDNGDITTIAQVVDLKAKLPERVKFGFSASGSLGGRQIHLIRSWSFTSTLITTTRRSIDNNEKKIMNMASA
- labelling of the major pancreatic duct (common bile duct, CBD) [1]: does not mark
- labelling of blood vessels or stromal cells ([1]; by immunohistochemistry): does not mark
- labelling of islet cells ([1]; rat): did NOT label; also recorded: does NOT mark
- labelling of duct epithelial cells ([1]; rat pancreas): DID label; also recorded: marks the single layer of epithelial cells
- PNA-positive fraction of T0 duct prep (T0 duct prep): 5-15%
